In the DeepSol protein solubility set:

Assay: soluble on expression in E. coli; label from the status in PepcDB or PDB records

Row | Sequence | soluble on expression in E. coli
1 | MAMNNILGLFAQSPLKPLQKHSVKVTECSELLEPFFEATFKQDWDEAIKVREQIIDLERRADALKREIRLKLPRGLFLPVERTDLLELVTQLDKLANYSRDISGRIIGRQLVIPEAMQATFRKFLSRSLDSTRQVRKVLAELDKLLETGFRGRELKFVNNMILELDQIEDDTDQIQIVLRRTLRGLEQEFNPIDVIFLYKCIERVSILADQAQRVGSRIELMLAKALEHHHHHH | soluble
2 | MAMQFVMRLAREFRRADWRRMLSDMSATELGEWGDYFRMQSFSDVWMDAQFASLKALIVRMVSGSSDAAVADFSLLPEENGIPERTDEELMHLGEGISGGVRYGPDSQPGHLEHHHHHH | not soluble
3 | MANDIVPQDENGAGMPVEFDASTITGEEKAAILLLSLNEQDAAGIIRHLEPKQVQRVGSAMARAKDLSQEKVSAVHRTFLEDIQKYTNIGMGSEDFMRNALVAALGEDKANNLVDQILLGTGSKGLDSLKWM | not soluble
4 | MANDKIVIHGARAHNLKNIDVTIPRDKMVVVTGLSGSGKSSLAFDTLYAEGQRRYVESLSAYARQFLGQMDKPDVDSIDGLSPAISIDQKTTSKNPRSTVGTVTEINDYLRLLFARVGHPICPNDHIEITSQSVEQMVDKVLELPERTKIQILAPVVVKKKGQHKKVFEMIQREGYVRMRVDGETYDVSEAPELEKNKKHDIAIVIDRIVVKEGIRSRLFDSFEAALRLAEGYAIVDVIGQEEMLFSEHYACPYCGFTVGELEPRLFSFNAPFGACPDCDGLGVKLEVDKDLVIPDPTKTLREGAIVPWNPISSQYYPQMLEQAATSFGIDMDTPFEELPADQQEIILNGSGEKNFHFHYENDFGGVRDVEVPFEGILKNIKRRYHETNSDFTRDQMRLYMTELTCRSCQGYRLNPQALAVKINGTHIGEVSELAIKNAVQFFEGVSLSEQETTIARPILKEVEDRLTFLKNVGLDYLTLSRAAGTLSGGEAQRIRLATQIGSNLSGVLYILDEPSIGLHQRDNDRLIDSLKKMRDLGNTLIVVEHDEDTMMASDYLIDVGPGAGHLGGEIVAAGTPEEVAKNPHSLTGQYLSGKKVIPVPKERRKGNGKAIKVTGASENNLKNVSVEFPLGEFVAVTGVSGSGKSTLVNQILKKALAQKLNRNSNKPGKHKSITGYEAIEKIVDIDQSPIGRTPRSNPATYTSVFDDIRDLFAQTNEAKVRGYKKGRFSFNVKGGRCEACRGDGIIKIEMHFLPDVYVPCEVCHGKRYNSETLEVHYKGKNISDILDMTVEDAVEFFKHIPKIHRKLQTIVDVGLGYVTLGQPATTLSGGEAQRMKLASELHKNSNGKNFYILDEPTTGLHTDDIARLLLVLERLVEAGNTVLVIEHNLDVIKSADHVIDLGPEGGDGGGTIVATGTPEEVAKVKDSYTGYYLKRVLK | not soluble
5 | MANLKSLPVGDKAPEVVHMVIEVPRGSGNKYEYDPDLGAIKLDRVLPGAQFYPGDYGFIPSTLAEDGDPLDGLVLSTYPLLPGVVVEVRVVGLLLMEDEKGGDAKVIGVVAEDQRLDHIQDIGDVPEGVKQEIQHFFETYKALEAKKGKWVKVTGWRDRKAALEEVRACIARYKG | soluble
6 | MANPLYQKHIISINDLSRDDLNLVLATAAKLKANPQPELLKHKVIASCFFEASTRTRLSFETSMHRLGASVVGFSDSANTSLGKKGETLADTISVISTYVDAIVMRHPQEGAARLATEFSGNVPVLNAGDGSNQHPTQTLLDLFTIQETQGRLDNLHVAMVGDLKYGRTVHSLTQALAKFDGNRFYFIAPDALAMPQYILDMLDEKGIAWSLHSSIEEVMAEVDILYMTRVQKERLDPSEYANVKAQFVLRASDLHNAKANMKVLHPLPRVDEIATDVDKTPHAWYFQQAGNGIFARQALLALVLNRDLVL | soluble
7 | MANPTVIKLQDGNVMPQLGLGVWQASNEEVITAIQKALEVGYRSIDTAAAYKNEEGVGKALKNASVNREELFITTKLWNDDHKRPREALLDSLKKLQLDYIDLYLMHWPVPAIDHYVEAWKGMIELQKEGLIKSIGVCNFQIHHLQRLIDETGVTPVINQIELHPLMQQRQLHAWNATHKIQTESWSPLAQGGKGVFDQKVIRDLADKYGKTPAQIVIRWHLDSGLVVIPKSVTPSRIAENFDVWDFRLDKDELGEIAKLDQGKRLGPDPDQFGG | soluble
